The record followed here is paper PMC10872345.

Assay [1] concerns the target Biotinylated human E-cadherin K14E mutant ectodomains (human). As to the kind of experiment: single-molecule AFM force spectroscopy.
Assay [2] concerns the target Biotinylated human E-cadherin ectodomains (EC1-5), wild type (human). As to the kind of experiment: single-molecule AFM force spectroscopy.

As to “Biotinylated human E-cadherin K14E mutant ectodomains (domain or fragment)”, in assay [1], the average unbinding force is 42.8 pN; the unbinding force, lower peak (un-strengthened, with 40 nM 66E8 Fab) was found to be 39.4 pN; the unbinding force, second peak (strengthened, with 40 nM 66E8 Fab) was found to be 62.3 pN.

In assay [2], “Biotinylated human E-cadherin ectodomains (EC1-5), wild type (domain or fragment)” registered a peak unbinding force of 48.3 pN; an unbinding force, lower peak (un-strengthened, with 40 nM 66E8) of 45.2 pN; an unbinding force, second peak (strengthened, with 40 nM 66E8) of 63.3 pN.
